Measured values taken from patent publication US20220332804A1 (CSL INNOVATION, published 2022).
Substitutions are numbered along the chain they refer to.

How the values were obtained:
Assay in all cases: SPR, KD relative to WT C2;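 note: biacore SPR at 37 °C, anti-C2 mAbs captured via immobilised goat anti-human IgG, C2 alanine or serine surface mutants as analytes, 1:1 model fitted, double-referenced sensograms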
[1] = target: T1, human C2 E275A (human, UniProt P06681 21-752)
T1 sequence: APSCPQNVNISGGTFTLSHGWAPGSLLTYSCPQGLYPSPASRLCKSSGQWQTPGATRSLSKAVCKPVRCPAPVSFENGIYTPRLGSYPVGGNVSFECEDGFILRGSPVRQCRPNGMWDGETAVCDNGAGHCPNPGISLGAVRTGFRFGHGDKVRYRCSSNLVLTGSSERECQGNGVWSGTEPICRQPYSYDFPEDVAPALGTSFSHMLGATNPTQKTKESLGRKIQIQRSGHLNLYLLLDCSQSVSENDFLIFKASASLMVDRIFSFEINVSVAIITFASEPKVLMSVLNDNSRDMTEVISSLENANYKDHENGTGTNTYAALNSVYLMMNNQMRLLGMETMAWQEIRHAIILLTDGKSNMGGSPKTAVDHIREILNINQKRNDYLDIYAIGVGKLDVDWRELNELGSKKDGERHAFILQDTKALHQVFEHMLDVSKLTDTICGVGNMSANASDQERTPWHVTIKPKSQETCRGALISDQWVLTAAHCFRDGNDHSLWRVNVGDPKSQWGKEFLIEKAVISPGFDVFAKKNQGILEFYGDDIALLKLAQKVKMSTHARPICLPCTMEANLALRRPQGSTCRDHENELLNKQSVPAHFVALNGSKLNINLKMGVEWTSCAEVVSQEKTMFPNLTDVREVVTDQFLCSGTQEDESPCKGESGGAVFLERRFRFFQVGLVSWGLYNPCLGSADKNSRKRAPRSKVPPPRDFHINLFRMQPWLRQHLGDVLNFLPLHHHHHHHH

[2] = target: T2, human C2 N424A (human, UniProt P06681 21-752)
T2 sequence: T1 sequence with A255E, N404A

[3] = target: T3, human C2 G427A (human, UniProt P06681 21-752)
T3 sequence: T1 sequence with A255E, G407A

[4] = target: T4, human C2 A470S (human, UniProt P06681 21-752)
T4 sequence: T1 sequence with A255E, A450S

B1: RF16-226 (antibody, human IgG4 S228P, lambda)
heavy: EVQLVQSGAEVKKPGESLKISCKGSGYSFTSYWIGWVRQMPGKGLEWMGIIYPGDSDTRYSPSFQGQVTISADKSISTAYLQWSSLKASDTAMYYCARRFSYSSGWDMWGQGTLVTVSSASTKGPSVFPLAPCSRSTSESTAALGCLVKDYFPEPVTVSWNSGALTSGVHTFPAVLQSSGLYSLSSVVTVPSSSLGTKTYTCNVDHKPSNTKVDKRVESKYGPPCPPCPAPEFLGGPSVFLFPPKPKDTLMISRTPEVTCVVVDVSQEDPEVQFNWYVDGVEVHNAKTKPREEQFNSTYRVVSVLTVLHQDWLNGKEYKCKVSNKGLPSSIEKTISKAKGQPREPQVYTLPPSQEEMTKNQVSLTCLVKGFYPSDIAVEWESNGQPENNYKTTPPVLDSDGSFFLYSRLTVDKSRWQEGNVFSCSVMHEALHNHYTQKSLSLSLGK
light: SYELTQPPSVSVSPGQTARITCSGDALTSKYVAWYQQKSGLAPLLVIYEDTRRPSGIPAKFSGSSSGSVATLTISGAHGDDEADYYCYSTDASGHQRVFGGGTKLTVLSQPKAAPSVTLFPPSSEELQANKATLVCLISDFYPGAVTVAWKADGSPVKAGVETTKPSKQSNNKYAASSYLSLTPEQWKSHRSYSCQVTHEGSTVEKTVAPTECS
notes: pH-dependent anti-C2 antibody from a phage display library; also called WT
- Fold diff [1]: 1 fold
- Fold diff [2]: 0 fold
- Fold diff [3]: 0 fold
- Fold diff [4]: 1 fold
